Reference: US20120076796A1 (Ablynx, published 2012)
Numbering of substitutions follows the chain as printed. One block for each binder: values may come before it.

Tests used:
[1] = target: T1, recombinant human Tie2/Fc Chimera (R&D Systems Cat No 313-TI, Lot No BKC06) (human, UniProt Q02763 23-745); experiment: competition ELISA: 0.2 ug/ml Tie2/Fc pre-incubated with 10 ul periplasmic extract, then on coated Ang1 (0.75 ug/ml); bound Tie2/Fc detected with anti-human IgG-HRP; blocked ligand: Ang1
T1 construct: Bought reagent; also called receptor; not shown: Fc portion of the bought chimera
T1 sequence (Q02763 23-745, change not shown): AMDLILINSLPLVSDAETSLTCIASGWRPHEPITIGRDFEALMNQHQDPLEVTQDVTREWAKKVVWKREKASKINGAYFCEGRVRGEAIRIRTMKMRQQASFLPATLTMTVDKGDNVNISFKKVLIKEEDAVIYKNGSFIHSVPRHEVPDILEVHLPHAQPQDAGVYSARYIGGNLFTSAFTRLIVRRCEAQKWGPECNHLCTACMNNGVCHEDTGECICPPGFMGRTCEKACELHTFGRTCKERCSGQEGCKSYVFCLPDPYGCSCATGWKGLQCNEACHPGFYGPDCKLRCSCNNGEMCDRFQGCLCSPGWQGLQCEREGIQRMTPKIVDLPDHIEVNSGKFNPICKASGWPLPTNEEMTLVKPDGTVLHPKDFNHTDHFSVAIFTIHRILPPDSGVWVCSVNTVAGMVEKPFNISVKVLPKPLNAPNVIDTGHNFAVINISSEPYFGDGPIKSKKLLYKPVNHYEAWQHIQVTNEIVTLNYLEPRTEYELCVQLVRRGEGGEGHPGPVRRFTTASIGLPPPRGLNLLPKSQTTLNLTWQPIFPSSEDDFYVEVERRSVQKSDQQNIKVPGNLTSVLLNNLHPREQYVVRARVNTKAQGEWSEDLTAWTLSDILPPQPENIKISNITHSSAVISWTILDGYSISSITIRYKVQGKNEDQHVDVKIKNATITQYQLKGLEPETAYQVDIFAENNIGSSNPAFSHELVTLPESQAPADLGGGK
Method: Clones tested positive in the Tie2 binding assay are screened for their ability to block Ang1 binding to Tie2/Fc. For this, Nanobody-containing periplasmic extracts (P.E.) are used in an ELISA-based ligand competition setup. In short, 0.75 ug/ml human Ang1 (R&D Systems Cat No 923-AN/CF Lot No FHWO73091) is coated in 96 well Maxisorp microtiter plates (Nunc) and blocked with 4% Marvel skimmed milk in PBS. In parallel, 0.2 ug/ml Tie2/Fc is incubated with 10 ul of periplasmic extract P.E. containing nanobody of the different clones in 100 ul 2% Marvel/PBS. After 1 hour, the receptor-Nanobody pre-mixes are incubated 1 hour with the coated ligand. Bound Tie2/Fc is detected using HRP-conjugated goat anti-human IgG (Jackson Immunoresearch, Cat #109-035-098). Blocking activity is determined as loss of OD signal, as compared to wells where no P.E., or irrelevant P.E., has been added.

[2] = target: T2, Recombinant human Angiopoietin-4 (R&D Systems Cat No 964-AN/CF) (human, UniProt Q9Y264 25-503, limits assumed); experiment: phage ELISA on coated Ang4: 10 ul monoclonal phage supernatant in 100 ul, anti-M13-HRP, OD 450 nm
T2 construct: Bought reagent; also called Ang4
T2 sequence (looked up): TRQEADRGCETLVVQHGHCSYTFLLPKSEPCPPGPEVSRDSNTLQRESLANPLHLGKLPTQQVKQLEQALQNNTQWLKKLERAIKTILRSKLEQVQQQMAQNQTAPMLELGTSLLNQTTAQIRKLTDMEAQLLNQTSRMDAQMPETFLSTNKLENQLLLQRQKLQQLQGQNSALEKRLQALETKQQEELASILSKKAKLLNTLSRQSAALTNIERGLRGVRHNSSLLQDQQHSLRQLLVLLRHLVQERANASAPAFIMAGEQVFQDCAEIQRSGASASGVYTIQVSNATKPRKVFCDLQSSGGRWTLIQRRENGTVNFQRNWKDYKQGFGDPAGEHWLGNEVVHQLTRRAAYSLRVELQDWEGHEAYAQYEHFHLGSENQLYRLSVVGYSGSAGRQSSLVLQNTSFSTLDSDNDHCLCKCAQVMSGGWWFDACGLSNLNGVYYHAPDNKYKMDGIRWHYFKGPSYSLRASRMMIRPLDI

[3] = target: T3, Recombinant human Angiopoietin-2 (R&D Systems Cat No 623-AN/CF) (human, UniProt O15123 19-496, limits assumed); experiment: phage ELISA: 10 ul monoclonal phage supernatant in 100 ul on 0.2 ug/ml coated Ang2, anti-M13-HRP, OD 450 nm
T3 construct: Bought reagent; also called Ang2; human Ang2
T3 sequence (looked up): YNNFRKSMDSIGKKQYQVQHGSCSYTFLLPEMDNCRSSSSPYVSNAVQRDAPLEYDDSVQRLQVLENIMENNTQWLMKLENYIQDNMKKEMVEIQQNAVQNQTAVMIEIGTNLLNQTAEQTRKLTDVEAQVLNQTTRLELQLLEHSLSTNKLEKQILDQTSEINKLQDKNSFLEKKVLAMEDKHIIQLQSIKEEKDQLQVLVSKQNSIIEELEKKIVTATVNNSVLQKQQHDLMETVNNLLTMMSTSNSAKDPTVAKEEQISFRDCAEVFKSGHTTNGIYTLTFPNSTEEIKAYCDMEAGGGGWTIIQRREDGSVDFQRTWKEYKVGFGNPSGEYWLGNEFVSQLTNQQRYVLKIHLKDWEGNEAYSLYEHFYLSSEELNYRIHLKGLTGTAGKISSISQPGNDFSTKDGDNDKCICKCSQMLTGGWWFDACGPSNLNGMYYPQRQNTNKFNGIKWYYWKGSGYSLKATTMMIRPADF
Method: In order to determine binding specificity to Ang2, the clones are tested in an ELISA binding assay setup, using the monoclonal phage pools. Phage binding to Ang2 (R&D Systems Cat No 623-AN/CF) is tested. Shortly, 0.2 ug/ml Ang2 is immobilized on Maxisorp ELISA plates (Nuns) and free binding sites are blocked using 4% Marvel skimmed milk in PBS. Next, 10 ul of supernatant from the monoclonal phage inductions of the different clones in 100 ul 2% Marvel. PBS are allowed to bind to the immobilized antigen. […] Binding specificity is determined based on OD values compared to controls having received an irrelevant phage or no phage.

[4] = target: T4, biotinylated rh Ang2 (R&D Systems Cat No BT623, Lot No BNR174091) (human, UniProt O15123 19-496, limits assumed, biotinylated (sites not given)); experiment: competition ELISA: 0.05 ug/ml biotinylated Ang2 pre-incubated with 10 ul periplasmic extract, then on coated Tie2/Fc (4 ug/ml); bound Ang2 detected with extravidin-HRP; blocked partner: Tie2/Fc
T4 construct: Bought reagent; also called biotinylated Ang2
T4 sequence (looked up): T3 sequence (looked up)
Method: Clones tested positive in the Ang2 binding assay are screened for their ability to block Ang2 binding to Tie2/Fc. For this, Nanobody-containing periplasmic extracts (P.E.) are used in an ELISA-based ligand competition setup. In short, 4 ug/ml human Tie2/Fc Chimera (R&D Systems Cat No 313-TI, Lot No BKC06)) is coated in 96 well Maxisorp microliter plates (Nunc) and blocked with 4% Marvel skimmed milk in PBS. In parallel, 0.05 ug/ml biotinylated rh Ang2 (R&D Systems Cat No BT623, Lot No BNR174091) is incubated with 10 ul of periplasmic extract containing nanobody of the different clones in 100 ul 2% Marvel/PBS. After 1 hour, the biotinylated Ang2-Nanobody pre-mixes are incubated 1 hour with the coated receptor. Bound biotinylated. Ang2 is detected using HRP-conjugated extravidin (SIGMA E2886-1mL, 126K4801). Blocking activity is determined as loss of OD signal, as compared to wells where no P.E., or irrelevant P.E., has been added.

binding result [1]: binds
B1: 163-E7 (VHH)
VHH: EVQLVESGGGLVQPGGSLRLSCAASGFTFSDYSMSWVRQAPGKGLEWVSAISGGGEVTTYADSVKGRFTISRDNAKNTLYLQMSSLKPEDTALYYCAEHLNFYSVSVRSSPTSQGTQVTVSS
notes: Nanobody

binding result [2]: binds
B2: 169-F11 (VHH)
VHH: EVQLVESGGGLVQPGGSLRLSCATSGFTFSTSWMYWLRQAPGKGLEWVSTITPRGLTDYTNSVKGRFTVSRDNAKNTLYLQMNSLKSEDTAVYYCTKDKNGPPMGQGTQVTVSS
notes: Nanobody

binding result [2]: binds
B3: 169-A10 (VHH)
VHH: B2 VHH with T31P, D58E, T60A, V69I, R71K, K97R
notes: Nanobody

binding result [2]: binds
B4: 169-C8 (VHH)
VHH: B2 VHH with N61D, V69I, N73S, V92D, K97R
notes: Nanobody

binding result [2]: binds
B5: 168-G3 (VHH)
VHH: EVQLVESGGGLVQPGGSLRLSCAASGSTLDYYAIGWYRQAPGKEREWVSCISSSNYGITTYADSVKGRFTISRDNAKNTVYLQMNSLKPEDTAIYYCATNTRRKYGRLCDLNADYWGQGTQVTVSS
notes: Nanobody

binding result [1]: binds
B6: 162-F11 (VHH)
VHH: EVQLVESGGGLVQAGGSLRLSCAASGFTFDDYAIGWFRQAPGKEREGVACISSSDGSTYYADSVKGRFTISSDNAKNTVYLQMNSLKPEDTAVYSCSAGSVAGCIPYYWGQGTQVTVSS
notes: Nanobody

binding result [1]: binds
B7: 162-H10 (VHH)
VHH: EVQLVESGGGLVQPGGSLRLSCAASGFTLDDYAVGWFRQAPGKEREGVSCIGSSYGSTYYADSVKGRFTISRDNAKNTVYLQMNSLKPEDTAVYYCAVQGYSGGYYYTCEDSADFGFWGQGTQVTVSS
notes: Nanobody

binding result [1]: binds
B8: 163-H8 (VHH)
VHH: EVQLVESGGGLVQPGGSLRLSCAASGFTFGSNGMRWVRQAPGKGPEWVSSINSDGTSTYYAESVKGRFTISRDNAKNTLYLQMHSLKPEDTAVYYCTTTENPNPRGPGTQVTVSS
notes: Nanobody

binding result [1]: binds
B9: 163-E9 (VHH)
VHH: B8 VHH with G16D, E62D, Y80C, H84N, N101D, N103Y, P107Q
notes: Nanobody; also called Nanobody 163E9; Tie-2 Nanobody 163E9

binding result [1]: binds
B10: 163-G8 (VHH)
VHH: B8 VHH with T58A, Y59F, H84N, E100M, P107Q
notes: Nanobody

binding result [3]: binds
binding result [4]: binds
B11: 166-C1 (VHH)
VHH: EVQLVESGGGLVQAGGSLRLSCAASGFTFGSTTIGWFRQAPGKEREGVSCISTGDGSTYYAESVKGRFTISSDNAKNTVYLQMNSLKPEDTAVYYCALDQAPMWSSWSAPYEYDYWGQGTQVTVSS
notes: Nanobody

binding result [3]: binds
binding result [4]: binds
B12: 166-F8 (VHH)
VHH: B11 VHH with S31T, G47V, D55G, A61T, S106N
notes: Nanobody

binding result [3]: binds
binding result [4]: binds
B13: 166-D7 (VHH)
VHH: B11 VHH with G30S, S31D, V48I, K87N, M103L, S106T
notes: Nanobody

binding result [3]: binds
B14: 166-E12 (VHH)
VHH: B11 VHH with E1K
notes: Nanobody

binding result [3]: binds
binding result [4]: binds
B15: 166-C10 (VHH)
VHH: B11 VHH with S31T, Y59N
notes: Nanobody

binding result [2]: binds
B16: 169-B12 (VHH)
VHH: EVQLVESGGGLVQAGGSLRLSCAASGSIFSINAMGWYRQAPGNQRDLVAAITSGDSTKYADFVKGRFTISRDNAKNTVYLQMNSLKPEDTAVYYCAAELLGKWYWGQGTQVTVSS
notes: Nanobody

binding result [2]: binds
B17: 169-E12 (VHH)
VHH: B16 VHH with A33T, S53N, D55G, A60V, F62S, L99S, K102R, Y104G
notes: Nanobody

binding result [2]: binds
B18: 169-A12 (VHH)
VHH: EVQLVESGGGLVQPGGSLRLSCVASGSIRSIIHMGWYRQAPGNERDLVAVIIDSRTTKYSESVKGRFTISRDNAKNTVYLQMNSLKPEDTAVYYCNALALGTDQSSTFDSWGQGTQVTVSS
notes: Nanobody

binding result [2]: binds
B19: 169-C12 (VHH)
VHH: B18 VHH with V23A, A40T, L47M, S60A
notes: Nanobody

binding result [3]: binds
B20: 166-D4 (VHH)
VHH: EVQLVESGGGLVQAGGSLRLSCVASGRIFTNTAMGWYRQAPGKWRELVATIYSGGSTKYIDSVKGRFIISRDNTRNTVHLQMNSLKPEDTAVYYCNTVGAGSYWGQGAQVTVSS
notes: Nanobody

binding result [2]: binds
B21: 168-A3 (VHH)
VHH: EVQLVESGGGLVQPGGSLRLSCAASGFTLSGNWMYWLRQAPGKGLEWISTITPRGLTAYADSVKGRFTISRDIAENTLYLQMNSLKSGDTAVYYCARDKTGERRGQGTQVTVSS
notes: Nanobody

binding result [2]: binds
B22: 168-E5 (VHH)
VHH: B21 VHH with G31S, G55D, I73N, G88E, R97K, T100A
notes: Nanobody
